In patent US20250042994A1 (HAINAN SIMCERE ZAIMING PHARMACEUTICAL, published 2025):
Substitutions are numbered along the chain they refer to. Blank lines part the entries; values can stand above or below the binder they belong to.

Legend:
Human CD19-his protein [1] = molecular target: T1, Human CD19-his protein (human, UniProt P15391 20-291); experiment: ELISA, antibody at 0.001 nM
T1 construct: bought protein; also called human CD19 protein; recombinant human CD19-His; not shown: His tag
T1 sequence (looked up): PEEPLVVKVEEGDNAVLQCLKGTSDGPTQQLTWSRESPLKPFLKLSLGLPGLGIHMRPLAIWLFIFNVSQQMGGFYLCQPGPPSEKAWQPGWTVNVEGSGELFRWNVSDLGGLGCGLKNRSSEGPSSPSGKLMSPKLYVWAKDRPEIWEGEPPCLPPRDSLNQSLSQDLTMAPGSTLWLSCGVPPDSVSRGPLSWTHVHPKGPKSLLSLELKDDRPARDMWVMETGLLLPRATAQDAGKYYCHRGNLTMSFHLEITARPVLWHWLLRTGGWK
Method: (§1) Human CD19-his protein (purchased from ACROBiosystems, catalog number: CD9-H52H2) was diluted with PBS to a final concentration of 4 μg/mL, and then added to a 96-well ELISA plate at 100 μl/well. The plate was sealed with a plastic film and incubated overnight at 4° C., the plate was washed 2 times with PBS the next day, and then a blocking solution [PBS+2% (w/w) BSA] was added for blocking at room temperature for 2 h. The blocking solution was poured off, and 100 nM gradiently diluted CD19 chimeric antibody or control antibody was added at 50 μl/well. After incubation at 37° C. for 2 h, the plate was washed 3 times with PBS. […] TMB substrate was added at 50 μl/well, and incubated at room temperature for 10 min, and then a stop solution (1.0 N HCl) was added at 50 μl/well. The OD450 nm values were read by an ELISA microplate reader (Multimode Plate Reader, EnSight, purchased from Perkin Elmer).

Human CD19-his protein [2] = molecular target: T1, Human CD19-his protein; experiment: ELISA, antibody at 0.0001 nM
Method: as §1

[3] = molecular target: T2, human CD19 exon1-3-his protein (human, UniProt P15391 20-186, limits assumed); experiment: ELISA, coated at 2 ug/mL
T2 construct: made in HEK293E cells; also called membrane-distal end; not shown: His tag
T2 sequence (looked up): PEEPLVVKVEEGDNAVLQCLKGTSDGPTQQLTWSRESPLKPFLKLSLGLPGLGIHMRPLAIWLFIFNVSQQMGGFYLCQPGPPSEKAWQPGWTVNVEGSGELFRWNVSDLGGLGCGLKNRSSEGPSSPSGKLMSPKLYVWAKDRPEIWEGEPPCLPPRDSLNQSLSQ
Method: as §1
CD19 protein contains 4 exons in the extracellular region, in which exons 1-3 are located at the membrane-distal end and exon 4 is located at the membrane-proximal end. […] To identify the distribution of antigen binding epitopes of the chimeric antibodies, human CD19 exon 1-3-His (membrane-distal end) was used to coat at 2 μg/mL according to the ELISA method in example 5.1.

Human CD19-his protein [4] = molecular target: T1, Human CD19-his protein; experiment: ELISA, antibody at 0.01 nM
Method: as §1

Human CD19-his protein [5] = molecular target: T1, Human CD19-his protein; experiment: ELISA, antibody at 0.10 nM
Method: as §1

murine CD19 protein = molecular target: T3, murine CD19 protein (murine, UniProt P25918 17-287, limits assumed); experiment: ELISA, coated murine CD19
T3 construct: bought protein; also called commercial murine CD19
T3 sequence (looked up): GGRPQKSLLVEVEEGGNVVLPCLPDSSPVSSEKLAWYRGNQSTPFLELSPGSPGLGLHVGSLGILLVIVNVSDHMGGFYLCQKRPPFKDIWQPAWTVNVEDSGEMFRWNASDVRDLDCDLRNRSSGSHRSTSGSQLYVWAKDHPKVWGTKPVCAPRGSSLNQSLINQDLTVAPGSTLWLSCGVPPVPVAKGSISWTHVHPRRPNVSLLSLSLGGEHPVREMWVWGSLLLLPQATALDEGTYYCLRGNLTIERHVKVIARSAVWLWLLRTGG
Method: as §1
In order to detect the species cross-binding activity of the chimeric antibodies, an ELISA plate was coated with commercial murine CD19 (ACROBiosystems, catalog number: 50510-M08H) and monkey CD19 (ACROBiosystems, catalog number: 90051-C08H), respectively, and the ELISA detection was performed according to the method in example 5.1.

Human CD19-his protein [6] = molecular target: T1, Human CD19-his protein; experiment: ELISA, antibody at 100 nM
Method: as §1

Human CD19-his protein [7] = molecular target: T1, Human CD19-his protein; experiment: ELISA, antibody at 1.00 nM
Method: as §1

Human CD19-his protein [8] = molecular target: T1, Human CD19-his protein; experiment: ELISA, antibody at 10 nM
Method: as §1

- OD450 (Human CD19-his protein [1]): 0.05
- OD450 (Human CD19-his protein [2]): 0.05
- binding result [3]: no binding
- OD450 (Human CD19-his protein [4]): 0.06
- OD450 (Human CD19-his protein [5]): 0.11
- binding result (murine CD19 protein): no binding
- OD450 (Human CD19-his protein [6]): 0.94
- OD450 (Human CD19-his protein [7]): 0.36
- OD450 (Human CD19-his protein [8]): 0.6
B2: F3.83.9 (antibody, human IgG1, V domains shown)
VH: DVQLQESGPGLVKPSQSLSLTCSVTGYSITSGYYWNWIRQFPGNKLEWMGYISYDGGNNYNPSLKNRISITRDTSKNQFFLKLNSVTTEDTATYFCAREDYSNWYFDVWGTGTTVTVSS
VL: DIVLTQSPASLAVSLGQRATISCRASQSVSKSSYSYMHWYQQKPGQSPKLLIKYASILKSGVPARFSGSGSGTDFTLNIHPVEEEDTATYYCQHSWEIPWTFGGGTKLEIK
notes: human-murine chimeric antibody, human IgG1

- OD450 (Human CD19-his protein [1]): 0.06
- OD450 (Human CD19-his protein [2]): 0.05
- binding result [3]: no binding
- OD450 (Human CD19-his protein [4]): 0.11
- OD450 (Human CD19-his protein [5]): 0.5
- binding result (murine CD19 protein): no binding
- OD450 (Human CD19-his protein [6]): 2.01
- OD450 (Human CD19-his protein [7]): 1.38
- OD450 (Human CD19-his protein [8]): 1.75
B4: F3.5.1 (antibody, human IgG1, V domains shown)
VH: QAQLQQSGPELVKPGASVKISCKASGYAFSGSWMNWVQQRPGKGLEWIGRIYPGDGDTYYNGKFKDKAILTADKSSSTAYMQLSSLTSEDSAVYFCAQLRYRYVMDYWGQGTSVTVSS
VL: DIVLTQSPASLAVSLGQRATISCRASESVSIHGSHLMHWYQQKPGQPPRLLIYAASNLESGVPARFSGSGSETDFTLNIHPVEEEDAATYFCQQGIKDPYTFGGGTKLEIK
notes: as for B2

The remaining lines, values behind:

B1: F3.3.10 (antibody, human IgG1, V domains shown)
VH: B2 VH with V12A, P14L, Y51H, G57N, F95Y, D100N, W104Y, V108Y, T111Q, V115L
VL: B2 VL with S35T, M37I, S47P, K59Q, I79F, W100Y
notes: as for B2
- OD450 (Human CD19-his protein [1]): 0.05
- OD450 (Human CD19-his protein [2]): 0.05
- binding result [3]: no binding
- OD450 (Human CD19-his protein [4]): 0.05
- OD450 (Human CD19-his protein [5]): 0.08
- binding result (murine CD19 protein): no binding
- OD450 (Human CD19-his protein [6]): 0.59
- OD450 (Human CD19-his protein [7]): 0.21
- OD450 (Human CD19-his protein [8]): 0.42

B3: F3.13.2 (antibody, human IgG1, V domains shown)
VH: DVQLQESGPGLMKPSQSLSLTCSVTGYSITSGYYWNWIRQFPGNKLEWMGYISYDGSNNYNPSLKNRFSITRDTSKNQFFLKLNSVTTEDTATYYCARRKLTGGPYFDYWGQGTTLTVSS
VL: DIVLTQSPASLAVTLGQRATISCRASESVSFHGFHIMHWYQQKPGQPPKLLIYAASHLVSGVPDRFSGSGSETDFTLNIHPVEEEDAAAYFCQQSVEDPWTFGGGTKLEIK
notes: as for B2
- OD450 (Human CD19-his protein [1]): 0.05
- OD450 (Human CD19-his protein [2]): 0.05
- binding result [3]: no binding
- OD450 (Human CD19-his protein [4]): 0.05
- OD450 (Human CD19-his protein [5]): 0.06
- binding result (murine CD19 protein): no binding
- OD450 (Human CD19-his protein [6]): 0.45
- OD450 (Human CD19-his protein [7]): 0.18
- OD450 (Human CD19-his protein [8]): 0.29
